From FireProtDB (doi:10.1110/ps.03176803) come the findings set out here.

The chains are these.
B1: Guanyl-specific ribonuclease Sa, P05798 (parent)
chain: DVSGTVCLSALPPEATDTLNLIASDGPFPYSQDGVVFQNRESVLPTQSYGYYHEYTVITPGARTRGTRRIITGEATQEDYYTGDHYATFSLIDQTC

This data set covers variants of B1. The note with it: Kitasatospora aureofaciens, Thermal, DSC, reversible: yes (90-95%), structure 1RGG, whole UniProt chain shown.
Where [1] appears, read: pH 5.5, 55.6 °C, sodium acetate potassium chloride 0.01 M 0.05 M.
[2] abbreviates: pH 5.5, sodium acetate potassium chloride 0.01 M 0.05 M.

With DVSGTVCLSALPPEATDTLNLIASDGPFPYSQDGVVFQNRESVLPTQSYGYYHEYTVITPGARTRGTRRIITGKATQEDYYTGDHYATFSLIDQTC [E74K], under setting [1], the “ddG of mutation (higher = less stable)” value was -0.1 kcal/mol. Moreover, under setting [2], the Tm was 56 °C; the “change of melting temperature, mutant - wild type (higher = more stable)” value (shortened to “change of melting temperature, mutant”) stood at 0.4 °C; the “unfolding enthalpy (calorimetric)” value was 103 kcal/mol; the “unfolding enthalpy (van 't Hoff)” value came out at 99 kcal/mol. Moreover, the “ddG of mutation (higher = less stable)” value (pH 7, 49 °C, PIPES 0.03 M) is -0.9 kcal/mol. For the setting “pH 7, PIPES 0.3 M”, the Tm amounted to 52.1 °C; the “change of melting temperature, mutant” value was found to be 3.1 °C; the “unfolding enthalpy (calorimetric)” value is 101 kcal/mol; the “unfolding enthalpy (van 't Hoff)” value was 113 kcal/mol.

For DVSGTVCLSALPPEATDTLNLIASDGPFPYSQDGVVFQNRESVLPTQSYGYYHEYTVITPGARTAGTRRIITGEATQEDYYTGDHYATFSLIDQTC [R65A], under setting [1], the “ddG of mutation (higher = less stable)” value worked out at 1.3 kcal/mol. Besides, under setting [2], the Tm is 51.1 °C; the “change of melting temperature, mutant” value is -4.5 °C; the “unfolding enthalpy (calorimetric)” value is 81 kcal/mol; the “unfolding enthalpy (van 't Hoff)” value was found to be 78 kcal/mol. For the same variant, the “ddG of mutation (higher = less stable)” value (pH 7, 49 °C, PIPES 0.03 M) amounted to 1 kcal/mol. Also, under “pH 7, PIPES 0.03 M”, the Tm came out at 45.6 °C; the “change of melting temperature, mutant” value is -3.4 °C; the “unfolding enthalpy (calorimetric)” value amounted to 81 kcal/mol; the “unfolding enthalpy (van 't Hoff)” value was determined as 90 kcal/mol.

With DVSGTVCLSALPPEATDTLNLIASDGPFPYSQDGVVFQNRESVLPTQSYGYYHQYTVITPGARTRGTRRIITGEATQEDYYTGDHYATFSLIDQTC [E54Q], the “ddG of mutation (higher = less stable)” value under setting [1] is 2.3 kcal/mol. In addition, the “ddG of mutation (higher = less stable)” value (pH 7, 49 °C, PIPES 0.03 M) stood at 1.7 kcal/mol. Under “pH 7, PIPES 0.03 M”, the Tm amounted to 43.1 °C; the “change of melting temperature, mutant” value is -5.9 °C; the “unfolding enthalpy (calorimetric)” value stood at 81 kcal/mol; the “unfolding enthalpy (van 't Hoff)” value came out at 87 kcal/mol.

Regarding DVSGTVCLSALPPEATDTLNLIASDGPFPYSQDGVVFQNRESVLPTQSYGYYHEYTVITPGARTRGTRRIITGEATQEDYYTGDQYATFSLIDQTC [H85Q], under setting [1], the “ddG of mutation (higher = less stable)” value was determined as 0 kcal/mol. Further, under setting [2], the Tm worked out at 55.5 °C; the “change of melting temperature, mutant” value was -0.1 °C; the “unfolding enthalpy (calorimetric)” value turned out to be 94 kcal/mol; the “unfolding enthalpy (van 't Hoff)” value stood at 105 kcal/mol. Also, the “ddG of mutation (higher = less stable)” value (pH 7, 49 °C, PIPES 0.03 M) came to 0 kcal/mol. Further, under “pH 7, PIPES 0.03 M”, the Tm came out at 49.1 °C; the “change of melting temperature, mutant” value stood at 0.1 °C; the “unfolding enthalpy (calorimetric)” value was 90 kcal/mol; the “unfolding enthalpy (van 't Hoff)” value is 89 kcal/mol.

DVSGTVCLSALPPEATDTLNLIASDGPFPYSQDGVVFANRESVLPTQSYGYYHEYTVITPGARTRGTRRIITGEATQEDYYTGDHYATFSLIDQTC [Q38A]: the “ddG of mutation (higher = less stable)” value under setting [1] is -0.4 kcal/mol. Moreover, under “pH 7, 49 °C, PIPES 0.03 M”, the “ddG of mutation (higher = less stable)” value was -1 kcal/mol. Moreover, where the note is “pH 7, PIPES 0.03 M”, the Tm was determined as 52.5 °C; the “change of melting temperature, mutant” value amounted to 3.5 °C; the “unfolding enthalpy (calorimetric)” value was 109 kcal/mol; the “unfolding enthalpy (van 't Hoff)” value is 110 kcal/mol.

Regarding DVSGTVCLSALPPEATDTLNLIASDGPFPYSQDGVVFQNRKSVLPTQSYGYYHEYTVITPGARTRGTRRIITGEATQEDYYTGDHYATFSLIDQTC [E41K], the “ddG of mutation (higher = less stable)” value under setting [1] is 1.5 kcal/mol. Also, under setting [2], the Tm is 50.5 °C; the “change of melting temperature, mutant” value is -5.1 °C; the “unfolding enthalpy (calorimetric)” value was determined as 97 kcal/mol; the “unfolding enthalpy (van 't Hoff)” value was 101 kcal/mol. For the same variant, the “ddG of mutation (higher = less stable)” value (pH 7, 49 °C, PIPES 0.03 M) came to 0.7 kcal/mol. Where the note is “pH 7, PIPES 0.03 M”, the Tm came out at 46.5 °C; the “change of melting temperature, mutant” value was -2.5 °C; the “unfolding enthalpy (calorimetric)” value stood at 90 kcal/mol; the “unfolding enthalpy (van 't Hoff)” value amounted to 100 kcal/mol.

Broadly, the Tm is the temperature at the midpoint of the melting transition.
